The values below come from the nanobody polyreactivity screen of Harvey et al. (2022).

The data set in a line: yeast display, Sf9 membrane polyspecificity reagent, FACS + sequencing; frameworks hold sequencing errors. Summed up:
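After 36–48 hours of galactose induction, yeast (Saccharomyces cerevisiae BJ5465) displaying a synthetic nanobody library were stained at 4 °C for 1 hour with 10% biotinylated, detergent-solubilized Sf9 membrane reagent. Streptavidin microbeads enriched the stained cells before FACS sorting into low and high (top ~1%) gates on anti-HA and streptavidin fluorescence. Each clone's polyreactivity label reflects its gate of origin.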
As to “QVQLVESGGGLVQAGGSLRLSCAASGRTFRYNAMGWYRQAPGKERELVAGITWRGGRTYYADSVKGRFTISRDNAKNTVYLQMNSLKPEDTAVYYCNTAGYYWLHYTMDYWGQGTQVTVSS”, the “polyreactivity (PSR sort gate)” value is listed as “high polyreactivity”.

For “QVQLVESGGGLVQAGGSLRLSCAASGRTFVRYAMGWYRQAHGKERELVAAIDSSGGRTYYADSVKGRFTISRDNAKNTVYLQMNSLKPEDTAVYYCNARRLASYRGYSWGQGTQVTVSS”, the “polyreactivity (PSR sort gate)” value is “high polyreactivity”.

Consider “QVQLVESGGGLVQAGGSLRLSCDASGSIFYGYAMGWYRQAPGKERELVASITGSGGSTSYADSVKGRFTISRDNAKKTVYLQMNSLKPEDTAVYYCNTVLLQLYKLASGFDYWGQGTQVTVSS”, for which the “polyreactivity (PSR sort gate)” value is reported as “high polyreactivity”.

For “QVQLVESGGRLVQAGGSLRLSCAASGFTFARYTMGWYRQAPGKERELVAAISSRGSSTYYADSVKWRFTISRDNAKNTVYLQMNSLKPEDTAVYYCGAPPRYGYDYWGQGTQVTVSS”, the “polyreactivity (PSR sort gate)” value is given as “high polyreactivity”.

As for “QVQLVESGGGLVQAGGSLRLSCAASGFIFRAYTMGWYRQAPGKERELVAAITSSGGRTYYADSVKGRFTISRDNAKNTVYLQMNSLKPEDTAVYYCATVYAKWKQFDYWGQGTQVTVSS”, the “polyreactivity (PSR sort gate)” value was “high polyreactivity”.

Regarding “QVQLVESGGGLVQAGGSLRLSCAASGSIFRRYAMGWYRQAPGKERELVAAISGSAGSTYYADSVKGRFTISRDNAKNTVYLQMNSLKPEDTAVYYCAADPDDGYDYWGQVTQVTVSS”, the “polyreactivity (PSR sort gate)” value is reported as “low polyreactivity”.

“QVQLVDSGGGLVQAGGSLRLSCAASGSIFSYYAMGWYRPAPGTERELVAGLSWGGGRTYYADSVKGRFTISRDNAKNTVYLQMNSLKQEDTAVYYCAARLTGLDYWGQGTQVTVSS”: the “polyreactivity (PSR sort gate)” value is “high polyreactivity”.

With “QVQLVESGGGLVQAGGSLRLSCAASGFTFFDNAMGWYRQAPGKERELVAVISSGGRTYYADSVKGRFTISRDNAKNTVYLQMNSLTPEDTAVYYCNAARAQRVKYDYWGQGTQVTVSS”, the “polyreactivity (PSR sort gate)” value is given as “high polyreactivity”.

Consider “QVQLVESGGGLVQAGGSLRLSCAASGSIFGVYAMGRYIQAPRKERELVASISRGGSTNYADSVKGRFTISRDNAKNTVYLQMKSLKPEDTAVYYCASDGVYQGWTWLYGLRYNYWGQGTQVTVSS”, for which the “polyreactivity (PSR sort gate)” value is “low polyreactivity”.

For “QVQLVESGGGLVQAGGSLRLSCGASGSIFRYYTMGWYRQAPGKERELVAAISRSGGSTYYADSVKGRFTISRDNAKNTVYLQMNRLKPEDTAVYYCAARSGYIYEYWGQGTQVTVSS”, the “polyreactivity (PSR sort gate)” value is “high polyreactivity”.

With “QVQLVESGGGLVQAGGSLRLSCAASGSTFSFNAKGWYRQAPGKARELVAAITGGDGTNYADSVKGRFTISRDNAKNTVYLQMNSLKPEDTAVNYCAADQWGSTEDYWFTYGYWGQGTQVTVSS”, the “polyreactivity (PSR sort gate)” value is given as “low polyreactivity”.

With “QVQLVESGGGLVQAGGSLRLSCAASGRIFQGNAMGWYRQAPGKERELVAAITTSGGSTYYADSVKGRFTISRDNAKNTVYLQMNSLKPEDTAVYYCNVDPRKRSYDYWGQGTQVTVSS”, the “polyreactivity (PSR sort gate)” value is “high polyreactivity”.

For the sequence “QVQLVETGGGLVQAGGSLRLSCAASGRTISVNAMVWYIQAPGKESELVAAISSGGGTNYADSVKGRFTISRDNAKNTVYFQMNSLKPEDTAVYYCAADSRPGKYYEDDYWGQGTQVTVSS”, the “polyreactivity (PSR sort gate)” value is “low polyreactivity”.

Consider “QVQLVESGGGLVQAGGSLRLSCAASGRTFTHNAMGWYRQAPGKERELVAGITSGGSTNYADSVKGRFTISRDNAKNTVYLQMNSLKPEDTAVYYCNKVFFWSRYKGYYYWGQGTQVTVSS”, for which the “polyreactivity (PSR sort gate)” value is “high polyreactivity”.

With “QVQVVESGGGLVHAGGSLRLSCAASGITCVWNDMGWYRQPPGKEREFVAGITYRSGRTYYADSVKGRFTISRDNAKNTVYLQMNSLKPEDTAGYYCATTPRYTTYNYWGQGTQVTVSS”, the “polyreactivity (PSR sort gate)” value is “high polyreactivity”.

Take “QDQLVESGGGLVQAGGSLRLSCAASGYTFDYNAMGWYRQAPGKEREFVAAIDWSGGNTYYADSVKGRFTISRDNAKNTVYLQMNSLKPEDTAVYYCNTVTEAVTRRYDYWGQGTQVTVSS”: the “polyreactivity (PSR sort gate)” value is “low polyreactivity”.

With “QVQLVESGGGLVQAGGSLRLICAAYGRIFQGYAMGWYRQAPGKERELVAAITLSGGSTYYADSVKGRFTISRDNAKNTVYLQMNSLKPEDTAVSYCNAYYPDEPSLYDYWGQGTQVTVSS”, the “polyreactivity (PSR sort gate)” value is “low polyreactivity”.

For “QVQLVESGGGLVQAGGSLRLSCAASGRTFRLYAMGWYRQAPGKERELVAVIRAGDSTNYADSVKGRFTISRDNAKNTVYLQLNSLKPDDTAVSYCAADVLYYYGKYDYWGQGTQVTVSS”, the “polyreactivity (PSR sort gate)” value was “high polyreactivity”.

In the case of “QVQLVETGGGLVQAGGSLRLSCAASGIIFREYAMGWYRQAPGKEMELVAAITRSGGSTNYADSVKGRFTISRDNAKNTVYLLMNSLKPEDTAVYYCASDYQRNDFRWYDYWGQGTLVTVSS”, the “polyreactivity (PSR sort gate)” value is on record as “low polyreactivity”.

For the sequence “QVQLVESGGGLVQAGGSLRLSCAASGRIFGDNAMGWYRQAPGKERELVAGIRWRADRTYYADSVKGRFTISRDNAKNTVYLQMNSLKPEDTAVYYCNADVVRYRHWHRGDYWGQGTQVTVSS”, the “polyreactivity (PSR sort gate)” value is listed as “low polyreactivity”.

With “QVQLVETGGGLVQAGGSLRLRCAASGSIFVPYTMGWYRQAPGKERELVASISYSGGTTYYADSEKGRFTISRDNAKNTVYLQMNSLKPEDTAVYYCAADWDESYSYRRYRHYDYWGQGTQLTVSS”, the “polyreactivity (PSR sort gate)” value is “low polyreactivity”.

As for “QVQLVESGGGLVQAGGSLRLSCAASGGMGWYRQAPGKERELVATISSVGSTNYADSVKGRFTISRDNAKNTVYLQMNSLKPEDTAVYYCNATGVQYFLYGYWGQGTQVTVSS”, the “polyreactivity (PSR sort gate)” value was “low polyreactivity”.

As for “QVQLVESGGGLEQAGGSLRLSCAASGLTFSVYAMGWYRQAPGKERELVAGITSSGGDTYYADSVKGRLTISRDNAKNTVYLQMNSLKPEDTAVYYCNAKYRTFVSKHDYWGQGTQVTVSS”, the “polyreactivity (PSR sort gate)” value was “low polyreactivity”.

As for “QVQLVESGGGLVQAGGSHRLSCAASGFTIYGNAMGWYRQAPGKERELVAAISGSGGITYYADSVKGRFTISRDNAKNTVYLQMNSLKPEDTAVYYCAAEFWVSRSIWLYYYWGQGTQVTVSS”, the “polyreactivity (PSR sort gate)” value is “high polyreactivity”.

On to “QVQLVESGGGLDQAGGCLRLSCAASGSIFRTYAMGWYRQAPGKERELVADITRRGGSTYYADSVKGRFTISRDNAKYTVNLQLNSLKPEETAVYYCAAYGYTSAGDSARLDYWGQGSQVTVSS”, for which the “polyreactivity (PSR sort gate)” value is given as “high polyreactivity”.

On to “QVQLVESGGGLVQAGVSLRLSCAASGNIFGVYTMGWYRQAPGQEREFVAAISDGGSTYYADSVKGRFTISRDNAKNTVYLQMIRLKPEDTAVYYCAALIYGPDRVVDEFVYWGQGTQVTVSS”, for which the “polyreactivity (PSR sort gate)” value was “low polyreactivity”.

Regarding “QVQLLESGGGVVQAGGSLRLSCASSGFTFRINAMGWYRPAPGKERELVAANSGRGGSTYYADSVKGRFTISRDYAKNTVYLQMNSLKPEDTAVYYCAAKGSSSLSYYYWGQGTQVTVSS”, the “polyreactivity (PSR sort gate)” value was “high polyreactivity”.

As to “QEQHVESGGGLVQAGGSLRLSCAATGLIIYYYAMGWYRQAPGKEMEFVAAISTSGSRTYYADSVKGRFTISRDNAKNTVSLQMNSLKPEDTAVYYCAAEPGRSRYAWGYSYPYDYWGQGTQVTVSS”, the “polyreactivity (PSR sort gate)” value was “high polyreactivity”.

On to “QVQLVESGGGLVQAGGSLRLSCAASGSTSESNAMGWYRQAPGKERELVAAIRSSGGGTYYADSVKGRFTISRDNAKNTVYLQMNSLKPEDTAVYYCAKDVPEDYEFYYWGQGTQVTVSS”, for which the “polyreactivity (PSR sort gate)” value is “low polyreactivity”.

Consider “QVQLVESGGGLVQAGGSLRLSCADSGYTIILYVMGWYRQAPGKERELVAVITLSGGITYYADSVKGRFTISRDNAKNTVYLQMNSLKPEDTAVYYCAVDVYHNRYFTLTSWYHYDSWGQGTQVTVSS”, for which the “polyreactivity (PSR sort gate)” value was “low polyreactivity”.

As for “QVQLVESGGGLVQAGGSLRLSCAASGLTFGGNARGWYRQAPGNERELVAPISSRGGSTYYADSVKGRFTISRDNAKNTVYLQMNSLKPEDTAVYYCAAGNRYGVRQLYQIVTRYYWGQGTQVTVSS”, the “polyreactivity (PSR sort gate)” value is “high polyreactivity”.

“QVQLVESGGGLVQAGGSLRLSCAASGLNFYYYTMGWYREAPGKERELVATISRSGTSTNYADSVKGRFTISRDNAKNTVYLQMNSLKPEDTAVYYCAAVLRWRDLFSEYYYLGQGTQVTVSS”: the “polyreactivity (PSR sort gate)” value is listed as “high polyreactivity”.

In the case of “QVQLVESGGGLVQAGGSLRLSCAASGSTFTLNAMGWYRQAPGKERELVADISWSSGRTYYADSVKGRVTISRDNAKNTVYLQMNSLKPEDTAVYYCATDDFWNVKFYAYYPDFDHWGQGTQVTVSS”, the “polyreactivity (PSR sort gate)” value is reported as “low polyreactivity”.

Take “QVQLVESGGGLVQAGGSLRLSCAASGFTFPWYAMGWYRQAPGKERELVAAITSGGGSTYYADSVKGRFTISRYNAKNTVYLQMNSLKPEDTAVYYCATSYTKQGFRYYYWGQGTQVTVSS”: the “polyreactivity (PSR sort gate)” value is “high polyreactivity”.

As for “QVQLVESGGGLVQAGGSLRLSCAASGFIFDYYAMGWYRQAPGKEREFVAAITWDGGSTYYADSVKGRFTISRDNAKNTVYLQMNSLKPEDTAVYYRAAETWGEYGYWGQGTQVTVSS”, the “polyreactivity (PSR sort gate)” value is listed as “low polyreactivity”.

With “QVQLQESGGGLVQAGGSLRLSCAASGTIFRFRYMGWHRQAPGKERELVAGINGGTTTYYADSVIGRFTISRDNAKKSVYLQMNSLKPDDTAVYNCAAGASRLTYYDYWGQGTQVTVSS”, the “polyreactivity (PSR sort gate)” value is “low polyreactivity”.

With “QVQLVESGGGLVQAGGSLRLSCAASGIIFGPYAMGWYIQAPGKERELVAAITDGGITYYADSVKGRFTISRDNAKNTVYLQMNSLKPEDTAVYYCAAESGYPVYTYVSSGDYWGQGTQVTVSS”, the “polyreactivity (PSR sort gate)” value is on record as “low polyreactivity”.

With “QVQLVESGGGLVQAGGSLRLSCAASGSIFTHYAMGWYRQAPGKERELVAAIARRGGSTYYADSVKGRFTISRDNAKNTVYLQMNSLKPEDTAVYYCAKSPDTAKEYDYWGQGTQVTVSS”, the “polyreactivity (PSR sort gate)” value was “high polyreactivity”.

Turning to “QVHLVESGGGLVQAGGSLRLSCAASGITFGRNTMGWSRQAPGKERELVDAIDSCGNTYADSVKGRFTISRDNAKNTVYLKMNIVNPEDTAVYYCAVDGGEFSSYGEWGQGTQVTVAS”, the “polyreactivity (PSR sort gate)” value is “low polyreactivity”.

As to “QLQLVESGGGLVKAGGSLRLSCAASGFIFNCYAMGWNRQAPVKEREMVARISRSGGSTYYADSVKGRFTISRDNAKNTVYLQMNSLKPEDTAVYYCAADYYWSLHQRMDYWGQGTQVTVSS”, the “polyreactivity (PSR sort gate)” value was “high polyreactivity”.

In the case of “QGQLVESGGGLVQAGGSLRLSCAASGRIFAGNAMGWYRQAPGKDRELVAAISKSGRSTYYADSVKGRFTISRDNAKNTVYLQMNSLKPEDTAVYYCAKLYYPVSDQYDYYYWGQGTQVTVSS”, the “polyreactivity (PSR sort gate)” value was “low polyreactivity”.
